Source: PMC12141631
Positions count from the first letter of the chain named. Where two headings read alike, the source gives them in different places.

B1: human glycine receptor α3 subunit, α3em construct (receptor)
chain: ARSRSAPMSPSDFLDKLMGRTSGYDARIRPNFKGPPVNVTCNIFINSFGSIAETTMDYRVNIFLRQKWNDPRLAYSEYPDDSLDLDPSMLDSIWKPDLFFANEKGANFHEVTTDNKLLRIFKNGNVLYSIRLTLTLSCPMDLKNFPMDVQTCIMQLESFGYTMNDLIFEWQDEAPVQVAEGLTLPQFLLKEEKDLRYCTKHYNTGKFTCIEVRFHLERQMGYYLIQMYIPSLLIVILSWVSFWINMDAAPARVALGITTVLTMTTQSSGSRASLPKVSYVKAIDIWMAVCLLFVFSALLEYAAVNFVSRQHKELLRFRRKRKNKTEAFDMDDEVRESRFSFTAYGMGPCLQAKDGMTPKGPNHPVQVMPKSPDEMRKVFIDRAKKIDTISRACFPLAFLIFNIFYWVIYKILRHEDIHQQQD
B2: human glycine receptor α3 subunit, α3S346Eem construct (phosphorylation mimetic) (receptor)
chain: B1 chain with S337E

Tests used:
Assay in all cases: cryo-EM structure
[1] = biological target: human glycine receptor β subunit, βem construct (human)
[2] = biological target: human glycine receptor β subunit, βem construct (human); remark: listed apart in the source
[3] = biological target: human glycine receptor β subunit, βem construct (human); remark: listed apart in the source

Row | Binder | stoichiometry N [1] | stoichiometry N [2] | stoichiometry N [3]
1 | B1 | 4 α3 per β | 4 α3 per β | –
2 | B2 | 4 α3 per β | – | 4 α3 per β
